Data: patent US12214004B2, “Strains having effects of preventing or treating cancers” (Genome And Company, priority 2018, dated 2025)
Where two headings read alike, the source gives them in different places.

Assays:
[1] = test system: HCT116; assay: HCT116 cell viability, anticancer chemotherapeutic agent with GEN3033
[2] = test system: MC38 cancer cells; assay: MC38 tumor-induced model in C57BL/6 mice, MG731; assay type: in vivo, mouse; details: administered in combination with MG731
Procedure: Prior to constructing a tumor model, a sample of lactic acid bacteria was administered to mice for 2 weeks to increase intestinal establishment and immunity, and then 2×10^5 MC38 cancer cells were injected subcutaneously in the vicinity of the right hip of 8 C57BL/6 mice per group to construct a tumor-induced model. Simultaneously with injection of tumor cells, a sample of lactic acid bacteria was orally administered to the animal model for 3 weeks (from Monday to Saturday). The sample of lactic acid bacteria to be administered was diluted in 200 μL of PBS so as to be 1×10^9 of CFU per head and then administered orally.

[3] = test system: HCT116
[4] = test system: HCT116; assay: Cell lysis ability of PBMC against cancer cells (CFSE/7-AAD), MG731; assay type: cell-based; details: cancer cell death caused by PBMC set to 100%
Procedure: (§1) PBMCs (peripheral blood mononuclear cells) were collected from the human blood using Ficoll, and then red blood cells were removed through RBC lysis buffer, and the number of living cells was counted, and the cells were cultured for 24 hours in a round bottom 96 well plate containing lactic acid bacteria (6×10^5/50 ul/well) by adding PBMC 3 x 10^4 cells/50 μl to each well.
(§2) The colon cancer cell line HCT116 was mixed with 5 μM of CFSE (carboxyfluorescein succinimidyl ester) in RPMI medium without FBS, and reacted at 37° C. for 5 minutes, and then RPMI1640 medium containing FBS was added, and stored on ice for 10 minutes. After the supernatant was removed by centrifugation, the obtained cells were mixed with RPMI1640 containing 10% FBS, and then the number of cells was counted, and 3×10^4 cells/100 μl were added to each well of the above prepared 96 well plate.
Staining for CFSE and 7-AAD using FACSDiVa software (BD Biosciences) was measured to confirm the cell lysis ability of PBMC against cancer cell lines, and the results are shown in FIG. 9.

[5] = test system: HCT116; assay: Cell lysis ability of PBMC against cancer cells (CFSE/7-AAD), GEN3033; assay type: cell-based, human; details: cancer cell death caused by PBMC set to 100%
Procedure: as §1, with “(3×10^5/50” for “(6×10^5/50”
as §2
Staining for CFSE and 7-AAD using FACSDiVa software (BD Biosciences) was measured to confirm the cell lysis ability of PBMC against cancer cell lines, and the results are shown in FIG. 29.

[6] = HCT116, combination treatment with 0.5% GEN3033, compared to the agent alone

O=c1[nH]cc(F)c(=O)[nH]1 [5-FU, fluorouracil]
cancer cell death [1, 6]: remarkably high

N.N.[Cl][Pt][Cl] [Cisplatin, cisplatin]
cell viability ([1]; HCT116, 7 μM Cisplatin in combination with 0.5% GEN3033, compared to 7 μM Cisplatin alone): remarkably reduced

O=P1(N(CCCl)CCCl)NCCCO1 (stereo not drawn) [cyclophosphamide]
cancer cell death [1, 6]: remarkably high

O=C1[O][Pt]2([NH][C@@H]3CCCC[C@H]3[NH]2)[O]C1=O [oxaliplatin]
tumor inhibitory effect [2]: more excellent
cell viability [3]: ≥ 90%
cancer cell death [1]: remarkably high

CC(=O)O[C@H]1C(=O)[C@@]2(C)[C@H]([C@H](OC(=O)c3ccccc3)[C@]3(O)C[C@H](OC(=O)[C@H](O)[C@@H](NC(=O)c4ccccc4)c4ccccc4)C(C)=C1C3(C)C)[C@]1(OC(C)=O)CO[C@@H]1C[C@@H]2O [paclitaxel]
cancer cell death [1, 6]: remarkably high

Atezolizumab [anti-PD-L1]
cancer cell death (cytotoxicity) ([4]; alone): 133.6%
cancer cell death (cytotoxicity) ([4]; in combination with MG731): 221.6%
cancer cell death (cytotoxicity) ([5]; alone): 123.5%
cancer cell death (cytotoxicity) ([5]; in combination with GEN3033): 154.0%

Ipilimumab [antiCTLA-4]
cancer cell death (cytotoxicity) ([4]; alone): 108%
cancer cell death (cytotoxicity) ([4]; in combination with MG731): 214.4%
cancer cell death (cytotoxicity) ([5]; alone): 116.0%
cancer cell death (cytotoxicity) ([5]; in combination with GEN3033): 128.3%
